Earlier results, collected in article PMC8616177.
Where two headings read alike, the source gives them in different places.

How the values were obtained:
[1] = target: EGFR (Homo sapiens) (UniProt P00533)
[2] = target: EGFR (Homo sapiens) (UniProt P00533); remark: listed apart in the source

Kd [1]	Substance	Kd [2]
0.0015 µM	EGF (from UniProt P01133)	
	GE11	0.022 µM
